Like-named read-outs stand apart in the source and are kept apart here.
B1: creatine kinase M (CKMM) (enzyme)
chain: not shown
B2: α-crystallin (fraction containing αA-crystallin and αB-crystallin) (complex, porcine (purified from porcine lenses))
chain 1: MDIAIQHPWFKRALGPFYPSRLFDQFFGEGLFEYDLLPFLSSTISPYYRQSLFRTVLDSGVSEVRSDRDKFVIFLDVKHFSPEDLTVKVQEDFVEIHGKHNERQDDHGYISREFHRRYRLPSNVDQSALSCSLSADGMLTFSGPKVPSGVDAGHSERAIPVSREEKPSSAPTS
chain 2: MDIAIHHPWIRRPFFPFHSPSRLFDQFFGEHLLESDLFPASTSLSPFYFRPPSFLRAPSWIDTGLSEMRLEKDRFSVNLDVKHFSPEELKVKVLGDVIEVHGKHEERQDEHGFISREFHRKYRIPADVDPLTITSSLSSDGVLTVNGPRRQASGPERTIPITREEKPAVTAAPKK

How the values were obtained:
[1] = target: B2; assay: ITC
[2] = target: B2; assay: ITC; remark: listed apart in the source
[3] = target: B2; assay: ITC; remark: listed apart in the source
[4] = target: B2; assay: ITC; remark: listed apart in the source
SEC-MALS = target: the molecule itself; assay: SEC-MALS
creatine kinase M (CKMM) [5] = target: B1; assay: ITC
creatine kinase M (CKMM) [6] = target: B1; assay: ITC; remark: listed apart in the source
creatine kinase M (CKMM) [7] = target: B1; assay: ITC; remark: listed apart in the source

Sequence of creatine kinase M (CKMM) (P00563 whole entry): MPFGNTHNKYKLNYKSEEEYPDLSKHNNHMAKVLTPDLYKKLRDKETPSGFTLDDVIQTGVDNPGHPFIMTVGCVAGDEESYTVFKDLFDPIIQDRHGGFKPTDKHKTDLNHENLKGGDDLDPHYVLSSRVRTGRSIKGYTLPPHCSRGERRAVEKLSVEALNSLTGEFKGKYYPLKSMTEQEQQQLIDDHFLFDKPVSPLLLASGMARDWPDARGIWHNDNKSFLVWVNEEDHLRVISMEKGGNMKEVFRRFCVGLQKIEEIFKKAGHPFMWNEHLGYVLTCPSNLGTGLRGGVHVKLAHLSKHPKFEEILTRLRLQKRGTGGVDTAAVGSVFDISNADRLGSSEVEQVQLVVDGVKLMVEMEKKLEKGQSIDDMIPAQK

Row | Binder | stoichiometry N [1] | dH [2] | stoichiometry N [2] | dH [3] | stoichiometry N [3] | dH [4] | stoichiometry N [4] | stoichiometry N (SEC-MALS) | Ka (creatine kinase M (CKMM) [5]) | Kd (creatine kinase M (CKMM) [5]) | Ka (creatine kinase M (CKMM) [6]) | Kd (creatine kinase M (CKMM) [6]) | Ka (creatine kinase M (CKMM) [7]) | Kd (creatine kinase M (CKMM) [7])
1 | B1 | 28 | 86.6 kcal/mol | 0.068 | 102 kcal/mol | 0.068 | 130 kcal/mol | 0.063 |  |  |  |  |  |  | 
2 | B2 |  |  |  |  |  |  |  | 28 to 40 | 3e+06 M⁻¹ | 333 nM | 1.23e+06 M⁻¹ | 816 nM | 4.37e+06 M⁻¹ | 228 nM

Reference: article PMC7052508 (Biochemistry and Biophysics Reports, 2020)
